Test results as given in patent publication US20240018502A1.
Residue numbers refer to the chain shown, from its start. In names and notes the source's numbering stands.

B1: MTSP-1 Q38H/I41S/D60bV/F60eQ/Y60gF/ins97aE/F97T/T98G/F99L/C122S/Q175L/Q192I (enzyme)
chain: VVGGTDADEGEWPWQVSLHALGHGHSCGASLISPNWLVSAAHCYIDVRGQRFSDPTQWTAFLGLHDQSQRSAPGVQERRLKRIISHPFFNDTEGLDYDIALLELEKPAEYSSMVRPSLPDASHVFPAGKAIWVTGWGHTQYGGTGALILQKGEIRVINQTTCENLLPQLITPRMMCVGFLSGGVDSCIGDSGGPLSSVEADGRIFQAGVVSWGDGCAQRNKPGVYTRLPLFRDWIKENTGV
B2: MTSP-1 Q38G/H40R/I41H/D60bK/F60eT/F97D/F99L/C122S/Q175L/Q192G (enzyme)
chain: VVGGTDADEGEWPWQVSLHALGGGRHCGASLISPNWLVSAAHCYIDKRGTRYSDPTQWTAFLGLHDQSQRSAPGVQERRLKRIISHPFFNDDTLDYDIALLELEKPAEYSSMVRPISLPDASHVFPAGKAIWVTGWGHTQYGGTGALILQKGEIRVINQTTCENLLPQLITPRMMCVGFLSGGVDSCGGDSGGPLSSVEADGRIFQAGVVSWGDGCAQRNKPGVYTRLPLFRDWIKENTGV
B3: MTSP-1 Q38E/H40R/I41H/D60bK/F60eT/F97D/F99L/C122S/Q175L/Q192G (enzyme)
chain: B2 chain with G23E
B4: MTSP-1 Q38W/I41A/ins97aV/F97D/T98P/F99L/C122S/G151T/Q175S/Q192D (enzyme)
chain: VVGGTDADEGEWPWQVSLHALGWGHACGASLISPNWLVSAAHCYIDDRGFRYSDPTQWTAFLGLHDQSQRSAPGVQERRLKRIISHPFFNDDVPLDYDIALLELEKPAEYSSMVRPISLPDASHVFPAGKAIWVTGWGHTQYGGTTALILQKGEIRVINQTTCENLLPQSITPRMMCVGFLSGGVDSCDGDSGGPLSSVEADGRIFQAGVVSWGDGCAQRNKPGVYTRLPLFRDWIKENTGV
B5: MTSP-1 Q38L/I41A/D60bH/F60eT/ins97aV/F97D/T98P/F99L/C122S/G151Q/Q175A/Q192G (enzyme)
chain: B4 chain with W23L, D47H, F50T, T146Q, S170A, D189G
B6: MTSP-1 Q38H/I41S/D60bA/F60eV/Y60gF/ins97aE/F97T/T98G/F99L/C122S/G151N/Q175L/Q192T (enzyme)
chain: VVGGTDADEGEWPWQVSLHALGHGHSCGASLISPNWLVSAAHCYIDARGVRFSDPTQWTAFLGLHDQSQRSAPGVQERRLKRIISHPFFNDTEGLDYDIALLELEKPAEYSSMVRPISLPDASHVFPAGKAIWVTGWGHTQYGGTNALILQKGEIRVINQTTCENLLPQLITPRMMCVGFLSGGVDSCTGDSGGPLSSVEADGRIFQAGVVSWGDGCAQRNKPGVYTRLPLFRDWIKENTGV
B7: MTSP-1 Q38D/I41S/D60bT/F60eR/ins97aV/F97D/T98P/F99L/C122S/G151K/Q175S/Q192V (enzyme)
chain: B4 chain with W23D, A26S, D47T, F50R, T146K, D189V
B8: MTSP-1 Q38H/I41A/D60bA/F60eR/ins97aE/F97T/T98G/F99L/C122S/G151N/Q175L/Q192E (enzyme)
chain: B6 chain with S26A, V50R, F52Y, T189E
B9: MTSP-1 Q38H/I41S/D60bS/F60eR/Y60gW/F97T/ins97aE/T98G/F99L/C122S/Q175L/Q192E (enzyme)
chain: B6 chain with A47S, V50R, F52W, N146G, T189E
B10: MTSP-1 Q38H/I41S/D60bF/F60eV/F97D/ins97aV/T98P/F99L/C122S/G151N/Q175L/Q192A (enzyme)
chain: B6 chain with A47F, F52Y, T92D, E93V, G94P, T189A
B11: MTSP-1 Q38H/I41A/D60bT/F60eH/Y60gW/ins97aE/F97T/T98G/F99L/C122S/Q175L/Q192D (enzyme)
chain: B6 chain with S26A, A47T, V50H, F52W, N146G, T189D
B12: MTSP-1 Q38H/I41A/F97T/ins97aE/T98G/F99L/C122S/Q175L/Q192G (enzyme)
chain: B6 chain with S26A, A47D, V50F, F52Y, N146G, T189G
B13: MTSP-1 Q38E/I41S/D60bH/F60eI/ins97aE/F97T/T98G/F99L/C122S/G151N/Q175L/Q192V (enzyme)
chain: B6 chain with H23E, A47H, V50I, F52Y, T189V
B14: MTSP-1 Q38F/I41S/D60bF/F60eR/Y60gF/F97T/ins97aE/T98G/F99L/C122S/G151N/Q175L/Q192V (enzyme)
chain: B6 chain with H23F, A47F, V50R, T189V
B15: MTSP-1 Q38H/I41S/D60bT/F60eT/F97D/ins97aV/T98P/F99L/C122S/G151N/Q175L/Q192V (enzyme)
chain: B6 chain with A47T, V50T, F52Y, T92D, E93V, G94P, T189V
B16: MTSP-1 Q38E/I41S/D60bV/F60eK/ins97aE/F97T/T98G/F99L/C122S/G151N/Q175L/Q192I (enzyme)
chain: B6 chain with H23E, A47V, V50K, F52Y, T189I
B17: MTSP-1 Q38H/I41T/D60bV/F60eQ/F97T/ins97aE/T98G/F99L/C122S/Q175L/Q192G (enzyme)
chain: B6 chain with S26T, A47V, V50Q, F52Y, N146G, T189G
B18: MTSP-1 Q38H/I41A/D60bT/F60eH/Y60gW/F97T/ins97aE/T98G/F99L/C122S/G151N/Q175L/Q192D (enzyme)
chain: B6 chain with S26A, A47T, V50H, F52W, T189D
B19: MTSP-1 Q38Y/I41A/D60bL/F60eQ/ins97aV/F97D/T98P/F99L/C122S/G151N/Q175M/Q192A (enzyme)
chain: B4 chain with W23Y, D47L, F50Q, T146N, S170M, D189A
B20: MTSP-1 Q38H/I41S/D60bT/F60eS/Y60gW/F97D/ins97aV/T98P/F99L/C122S/G151H/Q175A/Q192D (enzyme)
chain: B4 chain with W23H, A26S, D47T, F50S, Y52W, T146H, S170A
B21: MTSP-1 Q38H/I41S/D60bT/F60eS/Y60gW/ins97aV/F97D/T98P/F99L/C122S/G151H/Q175L/Q192D (enzyme)
chain: B4 chain with W23H, A26S, D47T, F50S, Y52W, T146H, S170L
B22: MTSP-1 Q38R/I41T/ins97aE/F97T/T98G/F99L/C122S/G151N/Q175L/Q192G (enzyme)
chain: B6 chain with H23R, S26T, A47D, V50F, F52Y, T189G
B23: MTSP-1 Q38H/I41A/D60bE/F60eH/Y60gW/ins97aE/F97T/T98G/F99L/C122S/Q175L/Q192D (enzyme)
chain: B6 chain with S26A, A47E, V50H, F52W, N146G, T189D
B24: MTSP-1 Q38G/H40R/I41H/D60bH/F60eK/F97T/ins97aE/T98G/F99L/C122S/Q175L/V183A/Q192G (enzyme)
chain: B6 chain with H23G, H25R, S26H, A47H, V50K, F52Y, N146G, V178A, T189G
B25: MTSP-1 Q38H/I41A/D60bV/F60eT/Y60gW/ins97aE/F97T/T98G/F99L/C122S/Q175L/Q192E (enzyme)
chain: B6 chain with S26A, A47V, V50T, F52W, N146G, T189E
B26: MTSP-1 Q38T/I41S/D60bG/F60eM/ins97aV/F97D/T98P/F99L/C122S/G151N/Q175S/Q192S (enzyme)
chain: B4 chain with W23T, A26S, D47G, F50M, T146N, D189S
B27: MTSP-1 Q38H/I41S/D60bT/F60eS/F97D/ins97aV/T98P/F99L/C122S/G151H/Q175L/Q192D (enzyme)
chain: B4 chain with W23H, A26S, D47T, F50S, T146H, S170L

target: plasma purified human complement protein C3 (human) (UniProt P01024); test: cell-based or functional assay
Sequence (P01024 23-667, chain 1 of 2): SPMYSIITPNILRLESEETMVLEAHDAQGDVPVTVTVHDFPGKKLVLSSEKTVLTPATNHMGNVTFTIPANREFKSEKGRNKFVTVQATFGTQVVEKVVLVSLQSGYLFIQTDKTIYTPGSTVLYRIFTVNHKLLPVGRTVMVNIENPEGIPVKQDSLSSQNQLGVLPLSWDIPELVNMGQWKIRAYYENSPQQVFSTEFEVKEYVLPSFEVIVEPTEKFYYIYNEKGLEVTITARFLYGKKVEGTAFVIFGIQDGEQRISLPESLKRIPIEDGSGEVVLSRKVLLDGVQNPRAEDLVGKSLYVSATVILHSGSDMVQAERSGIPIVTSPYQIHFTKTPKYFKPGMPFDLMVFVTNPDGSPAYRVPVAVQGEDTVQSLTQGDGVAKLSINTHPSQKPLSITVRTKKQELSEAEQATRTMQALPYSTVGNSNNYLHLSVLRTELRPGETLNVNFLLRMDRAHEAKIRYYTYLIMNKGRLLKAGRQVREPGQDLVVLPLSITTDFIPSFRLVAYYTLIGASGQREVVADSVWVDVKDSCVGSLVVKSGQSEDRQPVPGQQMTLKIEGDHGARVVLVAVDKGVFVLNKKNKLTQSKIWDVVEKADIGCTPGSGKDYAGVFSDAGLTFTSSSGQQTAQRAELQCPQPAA
Sequence (P01024 672-1663, chain 2 of 2): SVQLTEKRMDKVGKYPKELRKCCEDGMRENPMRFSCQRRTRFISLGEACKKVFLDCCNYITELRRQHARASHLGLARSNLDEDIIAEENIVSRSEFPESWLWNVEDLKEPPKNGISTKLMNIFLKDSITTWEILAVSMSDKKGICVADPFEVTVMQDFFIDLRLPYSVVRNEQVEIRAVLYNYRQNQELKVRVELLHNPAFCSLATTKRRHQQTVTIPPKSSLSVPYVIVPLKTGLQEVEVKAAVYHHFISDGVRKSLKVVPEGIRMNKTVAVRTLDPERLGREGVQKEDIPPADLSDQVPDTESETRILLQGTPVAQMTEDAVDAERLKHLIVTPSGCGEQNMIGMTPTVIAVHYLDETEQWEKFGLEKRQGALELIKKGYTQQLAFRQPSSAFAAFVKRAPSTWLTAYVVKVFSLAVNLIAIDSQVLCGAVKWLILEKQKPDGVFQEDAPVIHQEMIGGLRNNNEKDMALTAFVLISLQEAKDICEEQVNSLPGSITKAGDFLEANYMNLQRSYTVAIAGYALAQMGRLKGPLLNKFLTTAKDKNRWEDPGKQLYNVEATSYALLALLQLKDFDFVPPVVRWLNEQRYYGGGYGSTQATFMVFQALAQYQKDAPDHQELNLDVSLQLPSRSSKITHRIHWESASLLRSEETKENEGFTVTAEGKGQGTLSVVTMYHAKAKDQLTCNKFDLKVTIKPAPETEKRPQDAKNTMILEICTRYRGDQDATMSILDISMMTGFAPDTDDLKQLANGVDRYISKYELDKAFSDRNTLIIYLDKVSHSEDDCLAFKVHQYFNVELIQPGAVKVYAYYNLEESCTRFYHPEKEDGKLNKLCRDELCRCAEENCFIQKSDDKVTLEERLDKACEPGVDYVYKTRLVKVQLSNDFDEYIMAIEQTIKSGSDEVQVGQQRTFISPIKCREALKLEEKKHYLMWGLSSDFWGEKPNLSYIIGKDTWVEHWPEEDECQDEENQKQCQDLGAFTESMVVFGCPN

Row | EC50 of hC3 cleavage [nM] | Binder
1 | 5.95 | B1
2 | 21.3 | B2
3 | 16.6 | B3
4 | 68 | B4
5 | 5.73 | B5
6 | 14.2 | B6
7 | 48.1 | B7
8 | 14.2 | B8
9 | 8.35 | B9
10 | 1.57 | B10
11 | 2.28 | B11
12 | 3.9 | B12
13 | 11.5 | B13
14 | 1.96 | B14
15 | 5.08 | B15
16 | 19.1 | B16
17 | 4.93 | B17
18 | 6.95 | B18
19 | 1.53 | B19
20 | 22.6 | B20
21 | 12.6 | B21
22 | 30.6 | B22
23 | 5.38 | B23
24 | 27.7 | B24
25 | 1.39 | B25
26 | 28.8 | B26
27 | 45.4 | B27
